First the molecules themselves.
B1: TPR 5TU (parent)
chain: GGAUCUUCUCGAUCUAACAAAAAAGACAAAUCUGCCACAAAGCUUGAGAGCAUCUUCGGAUGCAGAGGCGGCAGCCUUCGGUGGCGCGAUAGCGCCAACGUUCUCAACUAUGACACGCAAAACGCGUGCUCCGUUGAAUGGAGUUUAUCAUG

Variants at the floor of the assay were thinned out.

The variants in this data set derive from B1. Description: polymerase ribozyme fitness, log enrichment relative to wild type (log ratio); higher = more active; in vitro selection for triplet polymerase activity. A digest of the protocol:
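Frozen incubation at −7 °C formed the core of a single, triplicate in vitro selection round applied to PCR-built, transcribed mutant libraries of each subunit of a heterodimeric triplet polymerase ribozyme. Extended constructs were gel-excised, captured with streptavidin beads and amplified by RT-PCR, and input and output libraries were Illumina-sequenced with a filter of ≥10 input reads and ≥1 read per output. Fitness is the logarithm of genotype enrichment relative to wild-type enrichment, with inverse-variance-weighted replicate averaging, and the logarithm is base 2.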
On to C14U A19C C76U C99U, for which the “polymerase ribozyme fitness (log ratio)” value was -3.03.
For the variant C14G C85G C131A, the “polymerase ribozyme fitness (log ratio)” value is at most -4.2.
On to C14G A97U A98G, for which the “polymerase ribozyme fitness (log ratio)” value was -2.74.
The result for C14G C35U C95U U101A reads -3.82; that for C14G A40C C57G, -2.31.
In the case of C14U C18A A28U C54A A91G U148G it was at most -4.2.
Consider C14G G133U, for which the “polymerase ribozyme fitness (log ratio)” value was at most -4.2.
Turning to C14G G88U C93A C116G U144A, the “polymerase ribozyme fitness (log ratio)” value was at most -4.2.
Turning to C14G G88C A137U, the “polymerase ribozyme fitness (log ratio)” value is at most -4.2.
On to C14G C18U A21G G86C C105U C129A U130C, for which the “polymerase ribozyme fitness (log ratio)” value is at most -4.2.
In the case of C14U C35A A40G G84A it was at most -4.2; in that of C14U A47C G84A, -2.49.
With C14U C57G C85U G152A, the “polymerase ribozyme fitness (log ratio)” value was -3.89.
For C14G A73G G88C A98U C99G, the “polymerase ribozyme fitness (log ratio)” value is at most -4.2.
For the variant C14G U78A G86A, the “polymerase ribozyme fitness (log ratio)” value is at most -4.2.
For the variant C14G U15G C18G U55G G68A, the “polymerase ribozyme fitness (log ratio)” value was at most -4.2.
In the case of C14U C27U U90C A91U C116G it was -3.77; in that of C14G U15C G84U, -1.26.
C14U A21G A29G C85U C116A: the “polymerase ribozyme fitness (log ratio)” value is -4.2.
As for C14U A17U A24G A41C C51U U56A C93A A115C, the “polymerase ribozyme fitness (log ratio)” value is at most -4.2.
Regarding C14U A17U A19C U44A G68A A73G G86U C96U C149G, the “polymerase ribozyme fitness (log ratio)” value is at most -4.2.
The result for C14G G59A A73U C87G reads at most -4.2.
Take C14G A91U C93G C125A: the “polymerase ribozyme fitness (log ratio)” value is at most -4.2.
The result for C14G C18U reads -1.18.
Consider C14G A91U G143U, for which the “polymerase ribozyme fitness (log ratio)” value was -3.88.
On to C14U C57A A89G C96U U101A G136U, for which the “polymerase ribozyme fitness (log ratio)” value was at most -4.2.
Take C14G C75U G94C A122U G124A: the “polymerase ribozyme fitness (log ratio)” value was -3.86.
Regarding C14U A17C C35G G141C U151A, the “polymerase ribozyme fitness (log ratio)” value was at most -4.2.
As for C14G G92U, the “polymerase ribozyme fitness (log ratio)” value was -2.61.
In the case of C14G U77G A97U U111C, the “polymerase ribozyme fitness (log ratio)” value is -4.01.
As to C14G U15C C51U G68A G83A U90G C149G, the “polymerase ribozyme fitness (log ratio)” value is at most -4.2.
Take C14U A17U A24U C76A C85U: the “polymerase ribozyme fitness (log ratio)” value is -3.79.
In the case of C14U C57U it was -1.27; in that of C14G C85U, -2.1.
For C14G C85U C96U A113C A122U G143A, the “polymerase ribozyme fitness (log ratio)” value was at most -4.2.
For C14G U82A G84A C87U C118G, the “polymerase ribozyme fitness (log ratio)” value was -3.78.
The result for C14G G86C reads at most -4.2; that for C14U A28U C96G, at most -4.2; that for C14G A40G A41C C54U C85G C99U, at most -4.2.
In the case of C14U C43U C72A G84A C93G C95G A142G U144A it was at most -4.2; in that of C14G C57A G92A C96U A107C G124U, at most -4.2; in that of C14G G50U C95U C96U A115G, -4.1.
C14U A52U C54A G83U C96G A98U: the “polymerase ribozyme fitness (log ratio)” value was -3.86.
In the case of C14G C38A A60G U77A U78C C87G C125A U139G it was at most -4.2; in that of C14G C99G, -3.32.
C14U A21G A49G: the “polymerase ribozyme fitness (log ratio)” value is -2.56.
As for C14G C79A C93G C96A, the “polymerase ribozyme fitness (log ratio)” value is at most -4.2.
In the case of C14U A17C C18G A20G G59U C85U A91U C118U G140A it was at most -4.2; in that of C14U A17U A28G U44A A73G C95A G100U A106G A115G, at most -4.2; in that of C14G C38U G68U G80U A91G C103A U139C, at most -4.2.
The result for C14G C95U reads -1.57; that for C14G U55G C57U G86C C125G A137U, at most -4.2.
For the variant C14G C36U G92C, the “polymerase ribozyme fitness (log ratio)” value was at most -4.2.
Consider C14G C76G A89C C93G C95G U127G U151G, for which the “polymerase ribozyme fitness (log ratio)” value is at most -4.2.
As to C14G A40U C43U G46A G50C C85U G112A, the “polymerase ribozyme fitness (log ratio)” value was at most -4.2.
The result for C14G G50C A66G C85G A106G reads at most -4.2; that for C14G G83U, -2.05; that for C14G C69G C96A G124A, -3.69.
In the case of C14G G88C C125G it was -4.08.
In the case of C14G A39U U55G C95U, the “polymerase ribozyme fitness (log ratio)” value was at most -4.2.
In the case of C14G C51U C96U, the “polymerase ribozyme fitness (log ratio)” value was -3.1.
For C14G A40G A73G C85U U139A, the “polymerase ribozyme fitness (log ratio)” value is at most -4.2.
C14U C72A C85G G133U: the “polymerase ribozyme fitness (log ratio)” value is at most -4.2.
On to C14G U102A, for which the “polymerase ribozyme fitness (log ratio)” value is -4.05.
Turning to C14U A29U C54G G83U G84U C105G U151G, the “polymerase ribozyme fitness (log ratio)” value is at most -4.2.
On to C14U A47C C54U G84A, for which the “polymerase ribozyme fitness (log ratio)” value was -1.86.
For C14U A26U C54U C79U G94A U111G C123U, the “polymerase ribozyme fitness (log ratio)” value was at most -4.2.
In the case of C14G A40C U55A G81C G126A U139G G140A, the “polymerase ribozyme fitness (log ratio)” value was at most -4.2.
Consider C14G G25C A47U G50A C93A U102A G124C, for which the “polymerase ribozyme fitness (log ratio)” value is at most -4.2.
As to C14G U61A C87U C95G U135G A142C, the “polymerase ribozyme fitness (log ratio)” value is at most -4.2.
For C14U A24C U53A G67U C108U A150G, the “polymerase ribozyme fitness (log ratio)” value was at most -4.2.
The result for C14G A52G C75U C85U U144C reads -3.71; that for C14G U33C U56A C85A C99G G117U C123U, -3.91; that for C14U A19U C87U C99A, -3.91.
In the case of C14G C87U G141A, the “polymerase ribozyme fitness (log ratio)” value is -2.56.
With C14G A40U A73G U104C, the “polymerase ribozyme fitness (log ratio)” value is at most -4.2.
In the case of C14G U56A C85G G92A it was at most -4.2; in that of C14U A17G G83A C108U, at most -4.2.
Consider C14U C54G C93A C95G A150G, for which the “polymerase ribozyme fitness (log ratio)” value was at most -4.2.
The result for C14U A23C reads at most -4.2.
C14G C18U G92C: the “polymerase ribozyme fitness (log ratio)” value was -2.89.
With C14G C96U, the “polymerase ribozyme fitness (log ratio)” value was -2.21.
The result for C14G A106C C118A C123U reads -4.16; that for C14G U53A C85G U90A A91U C99A C118A A120U, at most -4.2.

Values taken from the RNAGym collection of RNA variant scans (doi:10.1073/pnas.2313332121).
